Data: patent US20200002431A1 (Seagen, published 2020)

T1: human BCMA (B-cell maturation antigen, CD269) expressed on cells (human, UniProt Q02223 1-184)
T1 construct: Endogenous on myeloma lines (NCI-H929, U266, JJN3) or a full-length clone transfected into HEK 293 cells; also called hBCMA; BCMA expressed on NCI-H929 cells
T1 sequence: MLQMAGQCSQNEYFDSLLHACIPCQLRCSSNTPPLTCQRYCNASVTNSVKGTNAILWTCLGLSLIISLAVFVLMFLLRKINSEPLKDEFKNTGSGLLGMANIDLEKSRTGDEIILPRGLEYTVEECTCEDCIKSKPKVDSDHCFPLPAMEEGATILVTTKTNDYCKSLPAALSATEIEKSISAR

B1: hSG16.45 vH1 vK1 (antibody, V domains shown)
VH: EVQLLESGGGLVQPGGSLRLSCAASGFTFNDHWMTWIRQAPGKGLEWISSITNTGGATYYLDSVKGRFTISRDNSKNTLYLQMNSLRAEDTAVYYCTSPGLYFDYWGQGVMVTVSS
VL: EIVLTQSPGTLSASPGERVTISCRASSSVSVMYWYQHKPGQAPRLLIYSTSSLASGVPDRFSGSGSGTDYTLTISRMEPEDFAVYYCHQWSSDPPTFGQGTKLEIKR
notes: also called hSG16.45 1
B2: rat SG16.45 antibody (antibody, V domains shown)
VH: EVQLVESGGGLVQPGRSLKLSCVASGFTFNDHWMTWIRQAPGRGLEWISSITNTGGATYYLDSVKGRFTISRDNAKSTLYLQMNSLRSEDTATYYCTSPGLYFDYWGQGVMVTVSS
VL: EIVLTQSPTTTAASPGEKVTITCLATSSVSVMYWYQHKSGASPKLLIYSTSSLASGVPDRFSGSGSGTSYSLTINTMEAEDAATYYCHQWSSDPPTFGSGTKLEIKR
notes: Rat monoclonal antibody; also called rSG16.45; hybridoma well 45
B3: cSG16.45 (antibody, V domains shown)
VH: EVQLVESGGGLVQPGRSLKLSCVASGFTFNDHWMTWIRQAPGRGLEWISSITNTGGATYYLDSVKGRFTISRDNAKSTLYLQMNSLRSEDTATYYCTSPGLYFDYWGQGVMVTVSS
VL: EIVLTQSPTTTAASPGEKVTITCLATSSVSVMYWYQHKSGASPKLLIYSTSSLASGVPDRFSGSGSGTSYSLTINTMEAEDAATYYCHQWSSDPPTFGSGTKLEIKR
notes: also called chimeric SG16.45
B4: hSG16.45 vH6 vK5 (antibody, V domains shown)
VH: EVQLVESGGGLVQPGRSLRLSCAASGFTFNDHWMTWVRQAPGKGLEWVSGITNTGGATYYADSVKGRFTISRDNAKNSLYLQMNSLRAEDTALYYCTSPGLYFDYWGQGTMVTVSS
VL: EIVLTQSPGTLSLSPGERATLSCLATSSVSVMYWYQHKPGQAPRLLIYSTSSLASGIPDRFSGSGSGTDYTLTISRLEPEDFAVYYCHQWSSDPPTFGQGTKLEIKR
notes: also called hSG16.45 24
B5: hSG16.45 vH6 vK2 (antibody, V domains shown)
VH: EVQLVESGGGLVQPGRSLRLSCAASGFTFNDHWMTWVRQAPGKGLEWVSGITNTGGATYYADSVKGRFTISRDNAKNSLYLQMNSLRAEDTALYYCTSPGLYFDYWGQGTMVTVSS
VL: EIVLTQSPGTLSLSPGERATLSCRASSSVSVMYWYQQKPGQAPRLLIYSTSSLASGIPDRFSGSGSGTDFTLTISRLEPEDFAVYYCHQWSSDPPTFGQGTKLEIKR
notes: also called hSG16.45 22
B6: hSG16.45 vH6 vK1 (antibody, V domains shown)
VH: EVQLVESGGGLVQPGRSLRLSCAASGFTFNDHWMTWVRQAPGKGLEWVSGITNTGGATYYADSVKGRFTISRDNAKNSLYLQMNSLRAEDTALYYCTSPGLYFDYWGQGTMVTVSS
VL: EIVLTQSPGTLSASPGERVTISCRASSSVSVMYWYQHKPGQAPRLLIYSTSSLASGVPDRFSGSGSGTDYTLTISRMEPEDFAVYYCHQWSSDPPTFGQGTKLEIKR
notes: also called hSG16.45 21
B7: hSG16.45 vH1 vK2 (antibody, V domains shown)
VH: EVQLLESGGGLVQPGGSLRLSCAASGFTFNDHWMTWIRQAPGKGLEWISSITNTGGATYYLDSVKGRFTISRDNSKNTLYLQMNSLRAEDTAVYYCTSPGLYFDYWGQGVMVTVSS
VL: EIVLTQSPGTLSLSPGERATLSCRASSSVSVMYWYQQKPGQAPRLLIYSTSSLASGIPDRFSGSGSGTDFTLTISRLEPEDFAVYYCHQWSSDPPTFGQGTKLEIKR
notes: also called hSG16.45 2
B8: hSG16.45 vH5 vK5 (antibody, V domains shown)
VH: EVQLVESGGGLVQPGGSLRLSCAASGFTFNDHWMTWVRQAPGKGLVWVSSITNTGGATYYADSVKGRFTISRDNAKNTLYLQMNSLRAEDTAVYYCTSPGLYFDYWGQGTMVTVSS
VL: EIVLTQSPGTLSLSPGERATLSCLATSSVSVMYWYQHKPGQAPRLLIYSTSSLASGIPDRFSGSGSGTDYTLTISRLEPEDFAVYYCHQWSSDPPTFGQGTKLEIKR
notes: also called hSG16.45 20
B9: hSG16.45 vH1 vK5 (antibody, V domains shown)
VH: EVQLLESGGGLVQPGGSLRLSCAASGFTFNDHWMTWIRQAPGKGLEWISSITNTGGATYYLDSVKGRFTISRDNSKNTLYLQMNSLRAEDTAVYYCTSPGLYFDYWGQGVMVTVSS
VL: EIVLTQSPGTLSLSPGERATLSCLATSSVSVMYWYQHKPGQAPRLLIYSTSSLASGIPDRFSGSGSGTDYTLTISRLEPEDFAVYYCHQWSSDPPTFGQGTKLEIKR
notes: also called hSG16.45 4
B10: hSG16.45 vH5 vK1 (antibody, V domains shown)
VH: EVQLVESGGGLVQPGGSLRLSCAASGFTFNDHWMTWVRQAPGKGLVWVSSITNTGGATYYADSVKGRFTISRDNAKNTLYLQMNSLRAEDTAVYYCTSPGLYFDYWGQGTMVTVSS
VL: EIVLTQSPGTLSASPGERVTISCRASSSVSVMYWYQHKPGQAPRLLIYSTSSLASGVPDRFSGSGSGTDYTLTISRMEPEDFAVYYCHQWSSDPPTFGQGTKLEIKR
notes: also called hSG16.45 17
B11: hSG16.45 vH1 vK3 (antibody, V domains shown)
VH: EVQLLESGGGLVQPGGSLRLSCAASGFTFNDHWMTWIRQAPGKGLEWISSITNTGGATYYLDSVKGRFTISRDNSKNTLYLQMNSLRAEDTAVYYCTSPGLYFDYWGQGVMVTVSS
VL: EIVLTQSPGTLSLSPGERATISCRASSSVSVMYWYQHKPGQAPRLLIYSTSSLASGVPDRFSGSGSGTDYTLTISRLEPEDFAVYYCHQWSSDPPTFGQGTKLEIKR
notes: also called hSG16.45 3
B12: hSG16.45 vH4 vK1 (antibody, V domains shown)
VH: EVQLLESGGGLVQPGGSLRLSCAASGFTFNDHWMTWVRQAPGKGLEWISSITNTGGATYYADSVKGRFTISRDNSKSTLYLQMNSLRAEDTAVYYCTSPGLYFDYWGQGTMVTVSS
VL: EIVLTQSPGTLSASPGERVTISCRASSSVSVMYWYQHKPGQAPRLLIYSTSSLASGVPDRFSGSGSGTDYTLTISRMEPEDFAVYYCHQWSSDPPTFGQGTKLEIKR
notes: also called hSG16.45 13
B13: hSG16.45 vH4 vK5 (antibody, V domains shown)
VH: EVQLLESGGGLVQPGGSLRLSCAASGFTFNDHWMTWVRQAPGKGLEWISSITNTGGATYYADSVKGRFTISRDNSKSTLYLQMNSLRAEDTAVYYCTSPGLYFDYWGQGTMVTVSS
VL: EIVLTQSPGTLSLSPGERATLSCLATSSVSVMYWYQHKPGQAPRLLIYSTSSLASGIPDRFSGSGSGTDYTLTISRLEPEDFAVYYCHQWSSDPPTFGQGTKLEIKR
notes: also called hSG16.45 16
B14: hSG16.45 vH4 vK2 (antibody, V domains shown)
VH: EVQLLESGGGLVQPGGSLRLSCAASGFTFNDHWMTWVRQAPGKGLEWISSITNTGGATYYADSVKGRFTISRDNSKSTLYLQMNSLRAEDTAVYYCTSPGLYFDYWGQGTMVTVSS
VL: EIVLTQSPGTLSLSPGERATLSCRASSSVSVMYWYQQKPGQAPRLLIYSTSSLASGIPDRFSGSGSGTDFTLTISRLEPEDFAVYYCHQWSSDPPTFGQGTKLEIKR
notes: also called hSG16.45 14
B15: hSG16.45 vH3 vK5 (antibody, V domains shown)
VH: EVQLLESGGGLVQPGGSLRLSCAASGFTFNDHWMTWIRQAPGKGLEWISAITNTGGATYYADSVKGRFTISRDNSKSTLYLQMNSLRAEDTAVYYCTSPGLYFDYWGQGVMVTVSS
VL: EIVLTQSPGTLSLSPGERATLSCLATSSVSVMYWYQHKPGQAPRLLIYSTSSLASGIPDRFSGSGSGTDYTLTISRLEPEDFAVYYCHQWSSDPPTFGQGTKLEIKR
notes: also called hSG16.45 12
B16: hSG16.45 vH4 vK3 (antibody, V domains shown)
VH: EVQLLESGGGLVQPGGSLRLSCAASGFTFNDHWMTWVRQAPGKGLEWISSITNTGGATYYADSVKGRFTISRDNSKSTLYLQMNSLRAEDTAVYYCTSPGLYFDYWGQGTMVTVSS
VL: EIVLTQSPGTLSLSPGERATISCRASSSVSVMYWYQHKPGQAPRLLIYSTSSLASGVPDRFSGSGSGTDYTLTISRLEPEDFAVYYCHQWSSDPPTFGQGTKLEIKR
notes: also called hSG16.45 15
B17: hSG16.45 vH6 vK3 (antibody, V domains shown)
VH: EVQLVESGGGLVQPGRSLRLSCAASGFTFNDHWMTWVRQAPGKGLEWVSGITNTGGATYYADSVKGRFTISRDNAKNSLYLQMNSLRAEDTALYYCTSPGLYFDYWGQGTMVTVSS
VL: EIVLTQSPGTLSLSPGERATISCRASSSVSVMYWYQHKPGQAPRLLIYSTSSLASGVPDRFSGSGSGTDYTLTISRLEPEDFAVYYCHQWSSDPPTFGQGTKLEIKR
notes: also called hSG16.45 23
B18: hSG16.45 vH5 vK3 (antibody, V domains shown)
VH: EVQLVESGGGLVQPGGSLRLSCAASGFTFNDHWMTWVRQAPGKGLVWVSSITNTGGATYYADSVKGRFTISRDNAKNTLYLQMNSLRAEDTAVYYCTSPGLYFDYWGQGTMVTVSS
VL: EIVLTQSPGTLSLSPGERATISCRASSSVSVMYWYQHKPGQAPRLLIYSTSSLASGVPDRFSGSGSGTDYTLTISRLEPEDFAVYYCHQWSSDPPTFGQGTKLEIKR
notes: also called hSG16.45 19
B19: hSG16.45 vH5 vK2 (antibody, V domains shown)
VH: EVQLVESGGGLVQPGGSLRLSCAASGFTFNDHWMTWVRQAPGKGLVWVSSITNTGGATYYADSVKGRFTISRDNAKNTLYLQMNSLRAEDTAVYYCTSPGLYFDYWGQGTMVTVSS
VL: EIVLTQSPGTLSLSPGERATLSCRASSSVSVMYWYQQKPGQAPRLLIYSTSSLASGIPDRFSGSGSGTDFTLTISRLEPEDFAVYYCHQWSSDPPTFGQGTKLEIKR
notes: also called hSG16.45 18
B20: hSG16.17 vH3 vK2 (antibody, V domains shown)
VH: QVQLVQSGAEVKKPGASVKLSCKASGYTFTDYYIHWVRQAPGQGLEWIGYINPNSGYTNYAQKFQGRATMTADKSINTAYVELSRLRSDDTAVYFCTRYMWERVTGFFDFWGQGTMVTVSS
VL: DIQMTQSPSSVSASVGDRVTITCLASEDISDDLAWYQQKPGKAPKVLVYTTSSLQSGVPSRFSGSGSGTDFTLTISSLQPEDFATYFCQQTYKFPPTFGGGTKVEIKR
notes: also called hSG16.17 9; VH3 VK2 humanized antibody
B21: hSG16.17 vH1 vK2 (antibody, V domains shown)
VH: QVQLVQSRAEVKKPGASVKLSCKASGYTFTDYYIHWVRQAPGQGLEWIGYINPNSGYTKYNENFKTRATMTADKSINTAYVELSRLRSDDTAVYFCTRYMWERVTGFFDFWGQGTMVTVSS
VL: DIQMTQSPSSVSASVGDRVTITCLASEDISDDLAWYQQKPGKAPKVLVYTTSSLQSGVPSRFSGSGSGTDFTLTISSLQPEDFATYFCQQTYKFPPTFGGGTKVEIKR
notes: also called hSG16.17 1

Target: T1, human BCMA (B-cell maturation antigen, …)
Test: cell binding, NCI-H929 cells expressing BCMA, 3-pt assay
Description: The six humanized heavy chains and four humanized light chains were tested in all 24 possible permutations for binding to BCMA expressed on NCI-H929 cells, which express about 50,000 molecules of BCMA per cell.

Row | Binder | binding result
1 | B1 | binds
2 | B2 | binds
3 | B3 | binds
4 | B4 | binds
5 | B5 | binds
6 | B6 | binds
7 | B7 | binds
8 | B8 | binds
9 | B9 | binds
10 | B10 | binds
11 | B11 | binds
12 | B12 | binds
13 | B13 | binds
14 | B14 | binds
15 | B15 | binds
16 | B16 | binds
17 | B17 | binds
18 | B18 | binds
19 | B19 | binds
20 | B20 | binds
21 | B21 | binds
